Legend:
[1] = target: T1, 诺如病毒GI.1病毒样颗粒 (GI.1 VP1 virus-like particle) (诺如病毒GI.1 (norovirus GI.1), UniProt Q83884 3-530); assay: ELISA, 100 ng GI.1 VLP coated per well
T1 construct: VLP assembled from VP1
T1 sequence: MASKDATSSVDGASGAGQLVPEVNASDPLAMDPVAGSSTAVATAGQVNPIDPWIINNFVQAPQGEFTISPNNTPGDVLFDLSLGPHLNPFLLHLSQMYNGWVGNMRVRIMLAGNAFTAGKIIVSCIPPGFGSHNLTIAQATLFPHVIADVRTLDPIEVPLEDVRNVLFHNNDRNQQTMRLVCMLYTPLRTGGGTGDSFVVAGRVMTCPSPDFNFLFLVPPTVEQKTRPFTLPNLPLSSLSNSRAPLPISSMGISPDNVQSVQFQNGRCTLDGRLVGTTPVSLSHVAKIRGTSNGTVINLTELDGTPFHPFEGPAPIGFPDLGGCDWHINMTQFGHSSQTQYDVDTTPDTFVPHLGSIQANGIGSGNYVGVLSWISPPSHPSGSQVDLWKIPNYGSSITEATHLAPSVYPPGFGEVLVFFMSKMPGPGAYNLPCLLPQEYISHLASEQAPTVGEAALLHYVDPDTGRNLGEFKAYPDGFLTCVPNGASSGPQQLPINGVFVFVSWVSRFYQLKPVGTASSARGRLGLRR

[2] = target: T2, 诺如病毒GII.4病毒样颗粒 (GII.4 VP1 virus-like particle) (诺如病毒GII.4 (norovirus GII.4), UniProt P54635 3-539); assay: blocking ELISA (surrogate neutralisation), VLP to PGM; reference G9
T2 construct: also called GII.4VLP; 天然结构的GII.4病毒样颗粒
T2 chain: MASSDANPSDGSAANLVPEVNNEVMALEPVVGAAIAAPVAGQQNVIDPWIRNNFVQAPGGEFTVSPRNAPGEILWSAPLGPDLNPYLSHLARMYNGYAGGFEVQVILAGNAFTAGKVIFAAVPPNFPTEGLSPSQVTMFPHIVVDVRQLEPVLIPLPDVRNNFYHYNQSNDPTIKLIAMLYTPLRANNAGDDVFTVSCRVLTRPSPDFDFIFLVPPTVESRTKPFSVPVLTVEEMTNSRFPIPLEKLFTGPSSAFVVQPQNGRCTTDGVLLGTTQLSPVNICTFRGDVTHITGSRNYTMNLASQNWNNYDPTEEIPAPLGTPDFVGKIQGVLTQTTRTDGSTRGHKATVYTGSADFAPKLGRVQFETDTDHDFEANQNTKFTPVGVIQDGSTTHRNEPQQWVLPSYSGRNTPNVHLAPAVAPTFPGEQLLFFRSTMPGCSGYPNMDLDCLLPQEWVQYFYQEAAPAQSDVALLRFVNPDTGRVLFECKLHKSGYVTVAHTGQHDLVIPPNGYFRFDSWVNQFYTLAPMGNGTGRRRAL

[3] = target: T2, 诺如病毒GII.4病毒样颗粒 (GII.4 VP1 virus-like …); assay: blocking ELISA (surrogate neutralisation), VLP to PGM; reference D11
[4] = target: T2, 诺如病毒GII.4病毒样颗粒 (GII.4 VP1 virus-like …); assay: blocking ELISA (surrogate neutralisation): mAb titrated against 0.5 ug/ml GII.4 VLP, binding of VLP to coated PGM read

B1: 8E1单抗 (抗诺如病毒GII.4型鼠源单克隆抗体8E1) (antibody, V domains shown)
VH: EIQLQQSGPELMKPGASVKISCKASGYSFTDYYMHWVKQSHGKSLEWIGYIDPFNGDTGYNQKFKVRATLTVDESSTTAYMHLSSLTSDDSAVYYCARDDWGSPFSYWGQGTLVTVSA
VL: DIQMTQSPSSLSASLGESVSLTCRASHDIGSNLDWLQQEPDGTIKRLIYATSTLDSGVPKRFSGSRSGSDYSLTISSLESEDFVEYYCLQYASSPRTFGGGTKLEIKR
notes: Mouse IgG1, kappa; also called m8E1
binding result [1]: no binding (tested: 5ug/ml)
fold of neutralising (blocking) activity against G9 [2]: ~16 fold
fold of neutralising (blocking) activity against D11 [3]: > 2 fold
EC50 [4]: 0.0436 µg/mL

Source: patent publication CN106188281A (INST PASTEUR OF SHANGHAI CHINESE ACAD OF SCIENCES, dated 2016)
